# Experiments:
# [1] = test system: cAMP response element (CRE); assay: Transcriptional reporter, forward transfection, CRE in HEK293 cells; format: cell-based, human; conditions: 3 h; for baseline: 10 nM FSK
# Experimental: HEK293 cells were plated at 15,000 cells/well in six 96-well tissue culture plates. Cells were grown in 100 μL of DMEM+10% FBS+1× non-essential amino acids (NEAA) and incubated overnight at 37° C. The cells were transiently transfected with either 10 ng or 100 ng plasmid DNA/well of pGL4.29 9B8 opt, pGL4.29 9B8 opt-P, or pGL4.29. Plasmid DNA was mixed with 850 μL of OPTI-MEMO (Invitrogen) and 32.4 μL of FUGENE® HD transfection reagent (Promega Corp.) and incubated at room temperature for 10 min. Eight μL of the transfection/reporter DNA mixture was added to the appropriate wells (2 constructs/plate). Cells were incubated for 4 hrs at 37° C. The medium was replaced with OPTI-MEM®+0.5% dialyzed FBS+1×NEAA+1× sodium pyruvate+1× Penn-Strep and incubated overnight at 37° C.
# A lytic reagent containing 100 mM MES pH 6.1, 1 mM CDTA, 150 mM KCl, 35 mM thiourea, 2 mM DTT, 0.25% TERGITOLO NP-9 (v/v), 0.025% MAZUO DF 204, and 20 μM PBI-3939 was added to the cells containing pGL4.29 9B8 opt or pGL4.29 9B8 opt-P and allowed to incubated for 10 min at room temperature (100 μL lytic reagent added to 100 μL cells). ONE-GLO™ assay reagent (Promega Corp.) was added to cells containing pGL4.29 and used according to the manufacturer's protocol (100 μL reagent added to 100 μL cells). Luminescence was measured on a GLOMAX® Luminometer.
# CRE [2] = assay: Transcriptional reporter, bulk transfection, CRE in NIH3T3 cells; format: cell-based; conditions: NIH3T3, 10 nM FSK, 4 h
# Experimental: (§1) The transcriptional reporter containing HRE and 9B8 opt-P was used in the bulk transfection of HeLa cells
# (§2) HEK293, NIH3T3, or HeLa cells were plated to a single well of a 6-well tissue culture plate the day before transfection at a density of 4.5×10^5 cells/well in 3 mL complete medium (DMEM+10% FBS+1×NEAA+1× sodium pyruvate) for HEK293 cells, 3×10^5 cells/well in 3 mL complete medium (DMEM+10% fetal calf serum (FCS)+1×NEAA+1× sodium pyruvate) for NIH3T3 cells, or 9.9×10^5 cells/well in 3 mL complete medium (DMEM+10% FBS+1×NEAA) for HeLa cells. Cells were grown overnight at 37° C.
# (§3) 3,300 ng of reporter plasmid DNA in 155 μL OPTI-MEM® was mixed with 9.9 μL FUGENE® HD transfection reagent, vortexed briefly, and incubated at room temperature for 10 min. The CRE transcriptional reporters were used to transfect HEK293 and NIH3T3 cells. The HRE transcriptional reporters were used to transfect HeLa cells. The reporter mixture was added to cells and mixed by gentle rocking followed by incubation at 37° C. for 6 hrs (HEK293 and NIH3T3) or 3 hrs (HeLa). […]
# (§4) FSK (CRE stimulator) or 17-AAG (HRE stimulator; 17-Allylamino-demethoxy geldanamycin) in OPTI-MEM® was added to the cells (10 nM or 10 μM final concentration for FSK; 1 nM or 1 μM final concentration for 17-AAG) and incubated at 37° C. for 4 hrs (FSK) or 6 hrs (17-AAG). […] Luminescence was measured on a GLOMAX® Luminometer.
# [3] = test system: heat shock response element (HRE); assay: Transcriptional reporter, bulk transfection, HRE in HeLa cells; format: cell-based; conditions: 6 h
# Experimental: as §1, §2, §3, §4
# CRE [4] = assay: Transcriptional reporter, bulk transfection, CRE in HEK293 cells; format: cell-based, human; conditions: HEK293, 10 nM FSK, 4 h
# Experimental: as §1, §2, §3, §4
# [5] = test system: antioxidant response element (ARE); assay: Transcriptional reporter, reverse transfection, ARE in HEK293 cells; format: cell-based, human; conditions: 100 ng DNA, 24 h
# Experimental: HEK293 cells were trypsinized (T75 flask, 3 mL trypsin) and resuspended in […] (approximately 8.9×10^6 total cells) in medium containing DMEM+10% FBS+1×NEAA. Each transcriptional reporter was prepared for transfection by mixing 1.2 mL OPTI-MEM®, 12 μL transcription reporter DNA (100 ng) and 36 μL FUGENE® HD transfection reagent together and incubated at room temperature for 35 min. Following incubation, 624 μL of the transfection/reporter DNA mixture was added to 12 mL of cell suspension and mixed by inversion. After mixing, 100 μL of the cell/DNA mixture was added to wells of a 96-well plate (2 constructs/plate). The cells were incubated at 37° C. for 22 hrs. Tert-butylhydroquinone (a Nrf2 stabilizer; tBHQ; 1 μM (“baseline”) or 20 μM) or sulphoraphane, (an organosulfer antioxidant known to activate Nrf2; 1 μM (“baseline”) or 20 μM) in OPTI-MEM® was added to each well and incubated at 37° C. for 24 hrs. Cells were lysed with 100 μL lytic reagent as described above for the forward transfection. Luminescence was measured on a GLOMAX® Luminometer.
molecule,measurement,setting,value
"9B8 opt-P: 9B8 opt further comprising the PEST protein degradation sequence (SEQ ID NO: 65) (protein, PEST degradation sequence) MVFTLEDFVGDWRQTAGYNLDQVLEQGGLSSLFQKLGVSVTPIQKIVLSGENGLKIDIHVIIPYEGLSGYQMGQIEKIFKVVYPVDDHHFKVILHYGTLVIDGVTPNMIDYFGRPYEGIAVFDGKKITVTGTLWNGNKIIDERLINPDGSLLFRVTINGVTGWRLCERILANSHGFPPEVEEQAAGTLPMSCAQESGMDRHPAACASARINV",baseline,[1]; 10 ng DNA,11179 RLU
same,RLU (10 µM FSK),[1]; 10 ng DNA,"1,353,459 RLU"
same,Response,[1]; 10 ng DNA,121
same,baseline,[1]; 100 ng DNA,"122,071 RLU"
same,RLU (10 µM FSK),[1]; 100 ng DNA,"20,544,753 RLU"
same,Response,[1]; 100 ng DNA,168
same,baseline,CRE [2],"410,461 RLU"
same,baseline,[3],"278,118 RLU"
same,baseline,CRE [4],"3,960,000 RLU"
same,RLU (20 μM sulphoraphane),[5],"3,940,000 RLU"
same,RLU (20 μM tBHQ),[5],"8,460,000 RLU"
same,baseline,[5]; 1 μM sulphoraphane,"258,406 RLU"
same,baseline,[5]; 1 μM tBHQ,"317,238 RLU"
